Experiments:
Test in all cases: binding of Fab e20 to H77 E1E2 alanine mutants; method not stated
[1] = biological target: H77 E1E2 mutant G530A (Hepatitis C virus genotype 1a, H77) (UniProt P27958)
[2] = biological target: H77 E1E2 mutant I413A (Hepatitis C virus genotype 1a, H77) (UniProt P27958)
[3] = biological target: H77 E1E2 mutant T414A (Hepatitis C virus genotype 1a, H77) (UniProt P27958)
[4] = biological target: H77 E1E2 mutant Y486A (Hepatitis C virus genotype 1a, H77) (UniProt P27958)
[5] = biological target: T1, H77 E1E2 mutant Q412A (Hepatitis C virus genotype 1a, H77, UniProt P27958 384-746)
T1 construct: Co-expressed with E1; P27958 is the whole polyprotein

[6] = biological target: T2, H77 E1E2 mutant N415A (Hepatitis C virus genotype 1a, H77, UniProt P27958 384-746)
T2 construct: Co-expressed with E1; P27958 is the whole polyprotein

[7] = biological target: T3, H77 E1E2 mutant T416A (Hepatitis C virus genotype 1a, H77, UniProt P27958 384-746)
T3 construct: Co-expressed with E1; P27958 is the whole polyprotein

[8] = biological target: T4, H77 E1E2 mutant N417A (Hepatitis C virus genotype 1a, H77, UniProt P27958 384-746)
T4 construct: Co-expressed with E1; P27958 is the whole polyprotein

[9] = biological target: T5, H77 E1E2 mutant G418A (Hepatitis C virus genotype 1a, H77, UniProt P27958 384-746)
T5 construct: Co-expressed with E1; P27958 is the whole polyprotein

[10] = biological target: T6, H77 E1E2 mutant S419A (Hepatitis C virus genotype 1a, H77, UniProt P27958 384-746)
T6 construct: Co-expressed with E1; P27958 is the whole polyprotein

[11] = biological target: T7, H77 E1E2 mutant W420A (Hepatitis C virus genotype 1a, H77, UniProt P27958 384-746)
T7 construct: Co-expressed with E1; P27958 is the whole polyprotein

[12] = biological target: T8, H77 E1E2 mutant H421A (Hepatitis C virus genotype 1a, H77, UniProt P27958 384-746)
T8 construct: Co-expressed with E1; P27958 is the whole polyprotein

[13] = biological target: T9, H77 E1E2 mutant I422A (Hepatitis C virus genotype 1a, H77, UniProt P27958 384-746)
T9 construct: Co-expressed with E1; P27958 is the whole polyprotein

[14] = biological target: T10, H77 E1E2 mutant N423A (Hepatitis C virus genotype 1a, H77, UniProt P27958 384-746)
T10 construct: Co-expressed with E1; P27958 is the whole polyprotein

[15] = biological target: T11, H77 E1E2 mutant R483A (Hepatitis C virus genotype 1a, H77, UniProt P27958 384-746)
T11 construct: Co-expressed with E1; P27958 is the whole polyprotein

[16] = biological target: T12, H77 E1E2 mutant P484A (Hepatitis C virus genotype 1a, H77, UniProt P27958 384-746)
T12 construct: Co-expressed with E1; P27958 is the whole polyprotein

[17] = biological target: T13, H77 E1E2 mutant W487A (Hepatitis C virus genotype 1a, H77, UniProt P27958 384-746)
T13 construct: Co-expressed with E1; P27958 is the whole polyprotein

[18] = biological target: T14, H77 E1E2 mutant H488A (Hepatitis C virus genotype 1a, H77, UniProt P27958 384-746)
T14 construct: Co-expressed with E1; P27958 is the whole polyprotein

[19] = biological target: T15, H77 E1E2 mutant Y527A (Hepatitis C virus genotype 1a, H77, UniProt P27958 384-746)
T15 construct: Co-expressed with E1; P27958 is the whole polyprotein

[20] = biological target: T16, H77 E1E2 mutant N532A (Hepatitis C virus genotype 1a, H77, UniProt P27958 384-746)
T16 construct: Co-expressed with E1; P27958 is the whole polyprotein

[21] = biological target: T17, H77 E1E2 mutant D533A (Hepatitis C virus genotype 1a, H77, UniProt P27958 384-746)
T17 construct: Co-expressed with E1; P27958 is the whole polyprotein

[22] = biological target: T18, H77 E1E2 mutant T534A (Hepatitis C virus genotype 1a, H77, UniProt P27958 384-746)
T18 construct: Co-expressed with E1; P27958 is the whole polyprotein

[23] = biological target: T19, H77 E1E2 mutant D535A (Hepatitis C virus genotype 1a, H77, UniProt P27958 384-746)
T19 construct: Co-expressed with E1; P27958 is the whole polyprotein

[24] = biological target: T20, H77 E1E2 mutant N540A (Hepatitis C virus genotype 1a, H77, UniProt P27958 384-746)
T20 construct: Co-expressed with E1; P27958 is the whole polyprotein

[25] = biological target: T21, H77 E1E2 mutant R543A (Hepatitis C virus genotype 1a, H77, UniProt P27958 384-746)
T21 construct: Co-expressed with E1; P27958 is the whole polyprotein

[26] = biological target: T22, H77 E1E2 mutant P544A (Hepatitis C virus genotype 1a, H77, UniProt P27958 384-746)
T22 construct: Co-expressed with E1; P27958 is the whole polyprotein

[27] = biological target: T23, H77 E1E2 mutant P545A (Hepatitis C virus genotype 1a, H77, UniProt P27958 384-746)
T23 construct: Co-expressed with E1; P27958 is the whole polyprotein

[28] = biological target: T24, H77 E1E2 mutant G547A (Hepatitis C virus genotype 1a, H77, UniProt P27958 384-746)
T24 construct: Co-expressed with E1; P27958 is the whole polyprotein

[29] = biological target: T25, H77 E1E2 mutant W549A (Hepatitis C virus genotype 1a, H77, UniProt P27958 384-746)
T25 construct: Co-expressed with E1; P27958 is the whole polyprotein

[30] = biological target: T26, H77 E1E2 mutant F550A (Hepatitis C virus genotype 1a, H77, UniProt P27958 384-746)
T26 construct: Co-expressed with E1; P27958 is the whole polyprotein

B1: Fab e20 (Fab, V domains shown)
VH: LLEQSGAEVKKPGSSVKVSCKASGDHYGINWVRQAPGQGLEWMGGIIPVFGTTTYAQKFQGRATITADDSTGTAFLELTRLTFDDTAVYFCATPHQLHVLRGGKALSPWDYWGQGT
VL: MAELTQSPATLSVSPGERATLSCRASQSVSSNLAWYQQKRGQAPSLLIYGTSTRATGIPARFSGSGSGTEFTLTISSLQSEDFAVYYCQQYNDWPSTFGQGT
notes: also called e20 antibody fragment
[1]
  e20 binding activity (% of wild-type H77) (% of wild-type H77): 3
[2]
  e20 binding activity (% of wild-type H77) (% of wild-type H77): 100
[3]
  e20 binding activity (% of wild-type H77) (% of wild-type H77): 95
[4]
  e20 binding activity (% of wild-type H77) (% of wild-type H77): 95
[5]
  e20 binding activity (% of wild-type H77): 100 % of wild-type H77
[6]
  e20 binding activity (% of wild-type H77): 98 % of wild-type H77
[7]
  e20 binding activity (% of wild-type H77): 96 % of wild-type H77
[8]
  e20 binding activity (% of wild-type H77): 97 % of wild-type H77
[9]
  e20 binding activity (% of wild-type H77): 100 % of wild-type H77
[10]
  e20 binding activity (% of wild-type H77): 100 % of wild-type H77
[11]
  e20 binding activity (% of wild-type H77): 97 % of wild-type H77
[12]
  e20 binding activity (% of wild-type H77): 100 % of wild-type H77
[13]
  e20 binding activity (% of wild-type H77): 100 % of wild-type H77
[14]
  e20 binding activity (% of wild-type H77): 100 % of wild-type H77
[15]
  e20 binding activity (% of wild-type H77): 100 % of wild-type H77
[16]
  e20 binding activity (% of wild-type H77): 100 % of wild-type H77
[17]
  e20 binding activity (% of wild-type H77): 100 % of wild-type H77
[18]
  e20 binding activity (% of wild-type H77): 100 % of wild-type H77
[19]
  e20 binding activity (% of wild-type H77): 92 % of wild-type H77
[20]
  e20 binding activity (% of wild-type H77): 100 % of wild-type H77
[21]
  e20 binding activity (% of wild-type H77): 100 % of wild-type H77
[22]
  e20 binding activity (% of wild-type H77): 100 % of wild-type H77
[23]
  e20 binding activity (% of wild-type H77): 10 % of wild-type H77
[24]
  e20 binding activity (% of wild-type H77): 70 % of wild-type H77
[25]
  e20 binding activity (% of wild-type H77): 68 % of wild-type H77
[26]
  e20 binding activity (% of wild-type H77): 72 % of wild-type H77
[27]
  e20 binding activity (% of wild-type H77): 97 % of wild-type H77
[28]
  e20 binding activity (% of wild-type H77): 98 % of wild-type H77
[29]
  e20 binding activity (% of wild-type H77): 96 % of wild-type H77
[30]
  e20 binding activity (% of wild-type H77): 94 % of wild-type H77

Source: US20110256140A1 (POMONA RICERCA S R L, published 2011)
